From article PMC13379313

Assays:
[1] = target: TW1 (DtxR-Geminin coiled-coil-SpyCatcher) (UniProt P0DJL7); assay: mass photometry; TW1, TW2 or assembled TW at a final concentration of 10 nM on the slide; 25 mM HEPES pH 7.4, 200 mM KCl, 5 mM MgCl2, 0.2 mM EDTA
[2] = target: TW2 (TrpR-Geminin coiled-coil-SpyTag-Geminin coiled-coil-MetJ) (UniProt P0A881); assay: as above

Substance | stoichiometry N [1] | stoichiometry N [2]
TW1 (DtxR-Geminin coiled-coil-SpyCatcher) (from UniProt P0DJL7 2-121; O75496 110-145) | 2 | 
TW2 (TrpR-Geminin coiled-coil-SpyTag-Geminin coiled-coil-MetJ) (from UniProt P0A881 2-10; O75496 110-145; O75496 110-145; P0A8U6 2-105) |  | 2
